Test results from patent publication US10487318.
Numbering of substitutions follows the chain as printed. In names and notes the source's numbering stands.

T1: 33mer peptide (LQLQPFPQPQLPYPQPQLPYPQPQLPYPQPQPF)
T1 chain: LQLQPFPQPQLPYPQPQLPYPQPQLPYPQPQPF

T2: fluorescently quenched α-gliadin hexapeptide analogue QXL520-PQPQLP-K(5-FAM)-NH2
T2 chain: PQPQLP

B1: Homologue 13 (NCBI YP_004348568) (protein)
chain: MARHLHAGSEPKVITESKCIGACDPAERIHVTVMLRREGEQALDALVDKLASGDPAAKPVSREDFAKRFGARADDIQHTEAFAKRHQLTVERVDPVQSVVELAGTIAQFENAFGVKLEKYEHHAIGSFRARTGAIALPDELHDAVTAVLGLDTRPQAHPHFRFRPPFQPARSGAGTSYTPLQLASIYNFPEGDGAGQCIALVELGGGYRAADIRQYFEQLGVKPPKLVDVSVNGGRNAPTDDPNGPDGEVALDIEVAGAIAPGATIAVYFAGNSDAGFIQSVNQAIHDSTNRPSVVSISWGGPEASWTQQSITAFNNVLKTAASLGVTVCAASGDSGSSDGLQDGSNHVDFPASSPYVLACGGTTLDAQAGQGIRREVVWNDEAASGGAGGGGVSAVFPAPSYQKGLSAKATGGGSTPLSQRGVPDVAGDASPTTGYIISIAGTTAVLGGTSAVAPLWAALIARINANGKSPVGWANPKLYAQPGAFHDITQGNNGAFAASEGWDACTGLGSPDGAKVAAALQGASGGSQQGRATGA
B2: Homologue 26 (NCBI YP_004030750) (protein)
chain: MHSYLKQQSHMQSYLEQENHMRSYLEMRKKPYFDDLANIRPGGLTPAQVCQAYQFAKVQPVRPVKLGIVSLAGQYLSSDMSKAFTGYGLPTPVVSTAGSQVLGDLWSNVENMMDIEIAGAAWAYATGTAATLLMQFEPNNETGIPNAINALVAAGCEVISISWGAPANLQTMEAITARKEACKQAAVQNVHVFAASGDESLNDGTNSRTPDDPCCDPNVWGVGGTRLVLQADGSIAQESAWGDGNAADKGGGGGFDSREPLPDYQVGVVHSEHRGSPDSSANADPGTGYAIVANGQWLIGGGTSASAPLTAGYVAAILSTLPGPISQSVLQRKLYTAHKTAFRDILLGSNGAPARPGWEEATGLGSINGPGLAAALQS
B3: Homologue 12 (NCBI YP_003658449) (protein)
chain: MTQPRYTPLPGSEREAPLLAARSNATAARASRAQTASATVVLRRRSELPEALVLDQQFISSDELAARYGADPVDIEKVRSVLERFKVSVVEVDAASRRVKVEGAVADIERAFNIALHSASGTDPHSGRGFEYRYRTGVLSVPAELGGIVTAVLGLDNRRQAETRLRVVPAAALGSSYTPVQLGEIYNFPQDATGAGQRIAIIELGGGYTPAGLRRYFASLGVVPPKVAAVSVDGAQNAPGPDPGADGEVQLDVEVAGALAPGAHVLVYFAPNTDQGFLDAVSQAAHATPPPTAISISWGASEDSWTASARDALNQALRDAAALGVTVTAAAGDSGSSDGVPDRRAHVDFPASSPYVLATGGTSLRADPATGVVQSETVWNDSQGSTGGGVSDVFPRPAWQAHVDVPHAGRGVPDVSAVADPATGYQVLVDNQPAVIGGTSAVAPLWAALVARLAESLGRPLGLLQPLVYPRTPGSTAYPGFRDITIGNNGAYKAGKGWDAATGLGVPDGTELLAHLRGLNGSE
B4: Homologue 14 (NCBI YP_001861188) (protein)
chain: HMTKHPLPGSERVLAPGSKVVAQCDPSETIEVVVVLRRKNEQQFAQMMKTIEAGAAGARPLTREELEQRFGALPEDIAKLKAFAAQHGLSVVREDASARTVVLSGRIEQFQQAFDVQLQHYEHQSMGRFRGRTGAISVPDELHGVVTAVLGLDDRPQARPHFRIRPPFQPARAQSASSFTPLQLASLYRFPQGDGSGQCIGIVELGGGYRTADLDSYFSSLGVGSPKVVAVGVDQSGNQPTGDPNGPDGEVTLDIEIAGALAPAATIAVYFTTNSDAGFIDAVSQAVHDRTNQPSVISISWGAPESMWTAQSMKALNDVLQSAAAIGVTVCAASGDSGSSDGVGDGRDHVDFPASSPYVLACGGTSLQGSGRTVAHEVVWNDGSNGGATGGGVSGAFPVPAWQEGLSTSAAQGGQRALTGRGVPDVAGDASPLTGYDVIVDGNNTVIGGTSAVAPLWAALIARINGAKGAPVGFVNPKLYKASACNDITQGNNGSYAATTGWDACTGLGSPDGVKVAAAL
B5: Homologue 15 (NCBI YP_002754884) (protein)
chain: MSPIASRRSALPLSERPAPENARALAAVEPDRTMTVSVLVRRKKPLVLADLEGKKLTHREFERRYGASEKDFATIAKFAAGHGLAVDHHASSLARRTVVLRGTARQMQQAFGVTLHDYEDSETQQRYHSFTGAITVPAAHARIIESVLGLDARPIAKPHFRVRKRSAAATGAVSFNPPQVASLYSFPTGVDGSGETIGILELGGGYETSDIQQYFSGLGIQPPTVVAVSVDGAVNAPGNPNGADGEVALDIQVAGSIAPGAKLAVYFAPNTEQGFVDAITTAVHDTANKPSVLSISWGGPESSWPQAAAQSLNNACESAAALGVTITVASGDNGSTDGVQDGQNHVDFPASSPYVLACGGTYLAAVNNGVPQESVWDDLASGGGATGGGVSALFPLPAWQTGANVPGGSMRGVPDVAGDASPESGYNVLVDGQPQVVGGTSAVAPLWAALIALVNQQKGEAAGFVNAALYQNPSAFHDITQGSNGAYAAAPGWDPCTGLGSPMGTAIAKILA
B6: Homologue 16 (NCBI YP_003387700) (protein)
chain: MSAFDQLVPLPGSEKTVPDAAPSQTLDPNEVLTVTIRIRRKRTLASLVSTTAPVTEVVSRSEYASRFGADPAIVKQVEAFASAYDLSLVEQSLARRSVLLRGTVAQMEQAFGVSLANYQLADGTVFRGRTGVVNVPSELVEHIEGVFGLDNRPQARAHFQVYKPEKGTKVAPRAGGISYTPPQLARLYNFPTGVTGKGQCIAIIELGGGFRTADIKTYFGGLGLKPPTVVAVSVDGGHNAPSTADSADGEVMLDIDVAGGVAPGAKIVVYFAPNTDQGFLDAITTAMHDTKNKPSVISISWGAAESNWTPQALTSFNQAFQAAAALGITVCAAAGDTGSDDSVGDGKAHVDFPASSPFVLACGGTKLTATDNVIASEVVWHESKTSATGGGVSDVFDLPDYQQKSHVPPSVNDKTRIGRGVPDVAAVADPVTGYAVRVDGSNLVFGGTSAVAPLMAGLIALINQQRGKAVGFIHPLIYANPSAFRDITQGNNTTTTGNKGYAATTGWDACTGLGVADGKKLASVLTATPVA
B7: Kumamolysin-As S262G, T292S, N291D, G319S, D358G, D368H (protein)
chain: MSDMEKPWKEGEEARAVLQGHARAQAPQAVDKGPVAGDERMAVTVVLRRQRAGELAAHVERQAAIAPHAREHLKREAFAASHGASLDDFAELRRFADAHGLALDRANVAAGTAVLSGPVDAINRAFGVELRHFDHPDGSYRSYLGEVTVPASIAPMIEAVLGLDTRPVARPHFRMQRRAEGGFEARSQAAAPTAYTPLDVAQAYQFPEGLDGQGQCIAIIELGGGYDEASLAQYFASLGVPAPQVVSVSVDGASNQPTGDPGGPDGEVELDIEVAGALAPGAKFAVYFAPDSDAGFLDAITTAIHDPTLKPSVVSISWSGPEDSWTSAAIAAMNRAFLDAAALGVTVLAAAGDSGSTGGEQDGLYHVHFPAASPYVLACGGTRLVASGGRIAQETVWNDGPDGGATGGGVSRIFPLPAWQEHANVPPSANPGASSGRGVPDLAGNADPATGYEVVIDGEATVIGGTSAVAPLFAALVARINQKLGKAVGYLNPTLYQLPADVFHDITEGNNDIANRAQIYQAGPGWDPCTGLGSPIGVRLLQALLPSASQPQPGSTENLYFQSGALEHHHHHH
B8: Kumamolysin-As N291D, D293A, G319S, D358G, Q361D, D368H (protein)
chain: B7 chain with G262S, S292T, D293A, Q361D
B9: Kumamolysin-As T292S, N291D, G319S, D358G, D368H (protein)
chain: B7 chain with G262S
B10: Kumamolysin-As N291D, G319S, S354N, D358G, Q361D, D368H (protein)
chain: B7 chain with G262S, S292T, S354N, Q361D
B11: Kumamolysin-As N291D, G319S, S354N, D358G, D368H (protein)
chain: B7 chain with G262S, S292T, S354N
B12: Kumamolysin-As N291D, D293A, G319S, S354N, D358G, Q361D, D368H (protein)
chain: B7 chain with G262S, S292T, D293A, S354N, Q361D
B13: Kumamolysin-As D293T, N291D, G319S, D358G, D368H (protein)
chain: B7 chain with G262S, S292T, D293T
B14: Kumamolysin-As S262K, D293N, N291D, G319S, D358G, D368H (protein)
chain: B7 chain with G262K, S292T, D293N
B15: Kumamolysin-As N291D, G319S, D358G, D368H (protein)
chain: B7 chain with G262S, S292T
B16: Kumamolysin-As V119D, S262K, D293T, N291D, G319S, D358G, D368H (protein)
chain: B7 chain with V119D, G262K, S292T, D293T
B17: Kumamolysin-As T357A (protein)
chain: B7 chain with G262S, D291N, S292T, S319G, T357A, G358D, H368D
B18: Kumamolysin-As G319S, D368S (protein)
chain: B7 chain with G262S, D291N, S292T, G358D, H368S
B19: Kumamolysin-As D358G (protein)
chain: B7 chain with G262S, D291N, S292T, S319G, H368D
B20: Kumamolysin-As D293A (protein)
chain: B7 chain with G262S, D291N, S292T, D293A, S319G, G358D, H368D
B21: Kumamolysin-As D358N (protein)
chain: B7 chain with G262S, D291N, S292T, S319G, G358N, H368D
B22: Kumamolysin-As G319S, S354N, D358G, D368H (protein)
chain: B7 chain with G262S, D291N, S292T, S354N
B23: Kumamolysin-As D358G, D368H (protein)
chain: B7 chain with G262S, D291N, S292T, S319G
B24: Kumamolysin-As G319S, D358G, D368H (protein)
chain: B7 chain with G262S, D291N, S292T

Target: T1, 33mer peptide …
With B1 the “Degradation pattern of 33mer (60 min)” value was “Max-like” and the “activity against the 33mer peptide” value was “demonstrated significant activity against the 33mer peptide”.
In the case of B2, the “Degradation pattern of 33mer (60 min)” value is reported as “Max-like” and the “activity against the 33mer peptide” value is reported as “had very strong activity comparable to KumaMax™ at breaking down the 33mer peptide”.
In the case of B3, the “Degradation pattern of 33mer (60 min)” value is reported as “WT-like”.
B4 was tested, and the “Degradation pattern of 33mer (60 min)” value was “WT-like - minor”.
With B5 the “Degradation pattern of 33mer (60 min)” value was “WT-like”.
In the case of B6, the “Degradation pattern of 33mer (60 min)” value is reported as “WT-like”.

Target: T2, fluorescently quenched α-gliadin …
With B7 the Fold Change in Activity of PQ Hydrolysis Relative to Wild Type Kumamolysin-As was 29 fold.
B8 was tested, and the Fold Change in Activity of PQ Hydrolysis Relative to Wild Type Kumamolysin-As was 40.9 fold.
Work on B9 yielded a Fold Change in Activity of PQ Hydrolysis Relative to Wild Type Kumamolysin-As of 49 fold.
B10 showed a Fold Change in Activity of PQ Hydrolysis Relative to Wild Type Kumamolysin-As of 50 fold.
With B11 the Fold Change in Activity of PQ Hydrolysis Relative to Wild Type Kumamolysin-As was 54.6 fold.
For B12, the Fold Change in Activity of PQ Hydrolysis Relative to Wild Type Kumamolysin-As was 58 fold.
For B13, the Fold Change in Activity of PQ Hydrolysis Relative to Wild Type Kumamolysin-As was 58 fold.
B14 showed a Fold Change in Activity of PQ Hydrolysis Relative to Wild Type Kumamolysin-As of 62 fold.
Protein B15 has a Fold Change in Activity of PQ Hydrolysis Relative to Wild Type Kumamolysin-As of 93 fold.
Protein B16 has a Fold Change in Activity of PQ Hydrolysis Relative to Wild Type Kumamolysin-As of 120 fold.
B17 was tested, and the Fold Change in Activity of PQ Hydrolysis Relative to Wild Type Kumamolysin-As was 2 fold.
For B18, the Fold Change in Activity of PQ Hydrolysis Relative to Wild Type Kumamolysin-As was 2 fold.
B19 gave a Fold Change in Activity of PQ Hydrolysis Relative to Wild Type Kumamolysin-As of 3 fold.
With B20 the Fold Change in Activity of PQ Hydrolysis Relative to Wild Type Kumamolysin-As was 3 fold.
Protein B21 has a Fold Change in Activity of PQ Hydrolysis Relative to Wild Type Kumamolysin-As of 4 fold.
B22 was tested, and the Fold Change in Activity of PQ Hydrolysis Relative to Wild Type Kumamolysin-As was 5 fold.
B23 gave a Fold Change in Activity of PQ Hydrolysis Relative to Wild Type Kumamolysin-As of 6 fold.
Work on B24 yielded a Fold Change in Activity of PQ Hydrolysis Relative to Wild Type Kumamolysin-As of 7 fold.
